These are literature values, as cited in patent US20250341526A1, “NOVEL DYES” (Quantum-Si Incorporated, priority 2024, published 2025).

Residue numbers refer to the chain shown, from its start. In names and notes the source's numbering stands.

The chains are these.
B1: Agrobacterium tumifaciens ClpS1 (atClpS1): ClpS amino acid recognition protein, SEQ ID NO: 93 (protein, listed as Agrobacterium tumifaciens)
chain: MIAEPICMQGEGDGEDGGTNRGTSVITRVKPKTKRPNLYRVLLLNDDYTPMEFVIHILERFFQKDREAATRIMLHVHQHGVGECGVFTYEVAETKVSQVMDFARQHQHPLQCVMEKK
B2: atClpS1 C7S: ClpS amino acid recognition protein, SEQ ID NO: 103 (protein)
chain: B1 chain with C7S
B3: PS218: ClpS amino acid recognition protein, SEQ ID NO: 98 (protein)
chain: B1 chain with M51F, E52Q, T70W, M73T
B4: PS573: ClpS amino acid recognition protein, SEQ ID NO: 87 (protein, listed as Leptospira fluminis)
chain: MSQTPVIEETTVKDPVKTGGPWKVVLWDDDEHTYDYVIEMLMEVCVMTMEQAFHHAVEVDTQKKTVVYSGEFEHAEHIQELILEYGPDPRMAVSKGSMSATLEKS
B5: PS572: ClpS amino acid recognition protein, SEQ ID NO: 86 (protein, listed as Blastopirellula marina)
chain: MSSEELSLQTRPKRQPPFGVILHNDDLNSFDYVIDSIRKVFHYELEKCFQLTLEAHETGRSLLWTGTLEGAELKQELLLSCGPDPIMLDKGGLPLKVTLEELPQ
B6: PS375: ClpS amino acid recognition protein, SEQ ID NO: 8 (protein)
chain: MEAEPETKVLASIPGVGTSEPFRVVLFNDEEHSFDEVIFQIIKAVRCSRAKAEALTMEVHNSGRSIVYTGPIEQCIRVSAVLEEIELRTEIQS
B7: PS578: ClpS amino acid recognition protein, SEQ ID NO: 92 (protein, listed as Planctomycetes bacterium)
chain: MSGTVVESKPRNSTQLAPRWKVIVHDDPVTTFDFVLGVLRRVFAKPPGEARRITREAHDTGSALVDVLALEQAEFRRDQAHSLARAEGFPLTLTLEPAD
B8: PS574: ClpS amino acid recognition protein, SEQ ID NO: 88 (protein, listed as Gemmata obscuriglobus)
chain: MANATPTPDVVPEEETETRTRRQPPYAVVLHNDDTNTMDFVVTVLRKVFGYTVEKCVELMLEAHTQGKVAVWIGALEVAELKADQIKSFGPDPHVTKNGHPLGVTVEPAA
B9: PS376: ClpS amino acid recognition protein, SEQ ID NO: 9 (protein)
chain: MPTNDLDLLEKQDVKIERPKMYQVVMYNDDFTPFDFVVAVLMQFFNKGMDEATAIMMQVHMQGKGICGVFPKDIAETKATEVMKWAKVEQHPLRLQVEAQA
B10: PS575: ClpS amino acid recognition protein, SEQ ID NO: 89 (protein, listed as Leptospira kmetyi)
chain: MASTQTPDLNEITEESTKSTGGPWRVVLWDDNEHTYEYVIEMLMEICTMTVEKAFLHAVQVDQEKRTVVFSGEFEHAEHVQERILTYGADPRMSNSKGSMSATLEK
B11: PS576: ClpS amino acid recognition protein, SEQ ID NO: 90 (protein)
chain: B10 chain with M44V, T48M, Q63K, V69D, F74L, T86N, K106R
modifications: Leptospira interrogans
B12: PS577: ClpS amino acid recognition protein, SEQ ID NO: 91 (protein, listed as Tuwongella immobilis)
chain: MSASSSQPGTTTKPDLDIQPRLLPPFHVILENDEFHSMEFVIDTLRKVLGVSIERAYQLMMTAHESGQAIIWTGPKEVAELKYEQVIGFHEKRSDGRDLGPLGCRIEPAV
B13: PS568: ClpS amino acid recognition protein, SEQ ID NO: 82 (protein, listed as Dehalococcoidia bacterium)
chain: MTTPSLPTRETEVEERTEVEPERLYHLVLLDDDQHSYQYVIEMLASIFGYGSEKAWTLARIVDTEGRAILETASHAQCERHQSQIHAYGADSRIPTSVGSMSAVIEEAGTPPQT
B14: PS569: ClpS amino acid recognition protein, SEQ ID NO: 83 (protein, listed as Planctomycetes bacterium)
chain: MYSKNQIKIYCSEDDKGQTATPLLEKKPKFAPLYHVILWDDNTHTYEYVIKLLMSLFRMTFEKAYQHTLEVDKKGRTICITTHLEKAELKQEQISNFGPDILMQNSKGPMSATIEPAN
B15: Agrobacterium tumifaciens ClpS2 (atClpS2): ClpS amino acid recognition protein, SEQ ID NO: 94 (protein, listed as Agrobacterium tumifaciens)
chain: MSDSPVDLKPKPKVKPKLERPKLYKVMLLNDDYTPREFVTVVLKAVFRMSEDTGRRVMMTAHRFGSAVVVVCERDIAETKAKEATDLGKEAGFPLMFTTEPEE
B16: atClpS2 C72S: ClpS amino acid recognition protein, SEQ ID NO: 100 (protein)
chain: B15 chain with C72S
B17: atClpS2-V1 + C72S: ClpS amino acid recognition protein, SEQ ID NO: 101 (protein)
chain: B15 chain with R36M, E37S, C72S
B18: PS570: ClpS amino acid recognition protein, SEQ ID NO: 84 (protein, listed as Leptospira congkakensis)
chain: MTGAGASQPSILEETEVRPRLSDGPWKVVLWDDDFHTYEYVIEMLMDVCQMPWEKAFQHAVEVDTRKKTIVFSGELEHAEFVHERILNYGPDPRMGSSKGSMTATLEQ
B19: PS571: ClpS amino acid recognition protein, SEQ ID NO: 85 (protein, listed as Leptospira meyeri)
chain: B18 chain with G3S, A4S, V17R, R18K, S73F, S97T, Q108K

The test system of the data set is amino acid at a terminal position of a polypeptide. To be noted: Table 1, ClpS proteins; amino acid at terminal position; inferred from literature and/or demonstrated by the inventors; cited from earlier work.
On to B1, for which the “Binding Pref.” value is reported as “F, W, Y, L”. Take B2: the “Binding Pref.” value is recorded as “F, W, Y, L”.

Consider B3, for which the “Binding Pref.” value is “F, W, Y, L”. For B4, the “Binding Pref.” value is listed as “I, L, V”.

With B5, the “Binding Pref.” value is listed as “I, L, V”. With B6, the “Binding Pref.” value is listed as “F, L”. Take B7: the “Binding Pref.” value is “I, L, V”.

In the case of B8, the “Binding Pref.” value is “I, L, V”. With B9, the “Binding Pref.” value was “F, W, L”. Turning to B10, the “Binding Pref.” value is listed as “I, L, V”. As for B11, the “Binding Pref.” value is on record as “I, L, V”. As for B12, the “Binding Pref.” value is on record as “I, L, V”. B13: the “Binding Pref.” value was “I, L, V”.

B14: the “Binding Pref.” value was “I, L, V”. With B15, the “Binding Pref.” value was “F, W, Y”. Turning to B16, the “Binding Pref.” value is reported as “F, W, Y”.

With B17, the “Binding Pref.” value is “F, W, Y”. On to B18, for which the “Binding Pref.” value is recorded as “I, L, V”. Take B19: the “Binding Pref.” value was “I, L, V”.
